US20190194660, “INHIBITORS OF SRSF1 TO TREAT NEURODEGENERATIVE DISORDERS” (University of Sheffield, published 2019)

T1: SRSF1-m4 (11-196 quadruple Arg to Ala mutant) (Homo sapiens, UniProt Q07955 SEQ:2-187)
T1 chain: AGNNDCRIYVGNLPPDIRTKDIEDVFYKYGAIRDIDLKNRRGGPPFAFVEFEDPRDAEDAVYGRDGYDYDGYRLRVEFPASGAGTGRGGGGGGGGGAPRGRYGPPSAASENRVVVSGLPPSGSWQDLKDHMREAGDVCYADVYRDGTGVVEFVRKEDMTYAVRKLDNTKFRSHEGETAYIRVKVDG


Columns and labels:
[1] = target: T1, SRSF1-m4 (11-196 quadruple Arg to Ala …); assay: UV crosslinking; conditions: tags: hexa-histidine, E. coli BL21(DE3)-RP; label: 5'-32P
Source text: (§1) Histone H3 is used to check for potential nuclear contamination. (g) Cytoplasmic and total G4C2-repeat sense transcript levels were normalized to Tub84b levels in G4C2×36+Ctrl-RNAi or G4C2×36+SRSF1⁷⁶-RNAi Drosophila in triplicate experiments prior to plotting as a ratio to account for potential changes in mRNA transcription/stability (mean±SEM; paired t-test; N (qRT-PCR reactions)=3).
(§2) N2A cells were transfected with FLAG control, FLAG-tagged SRSF1 or FLAG-tagged SRSF1-m4 and various lengths of sense or antisense repeat transcript constructs prior to fixing of ribonucleoprotein complexes. Cell extracts were then subjected to anti-FLAG immunoprecipitation under the same conditions used in the co-immunoprecipitation of NXF1 (FIG. 6g) prior to the qRT-PCR analysis of SRSF1-crosslinked RNA molecules.

MAGOH = MAGOH (UniProt P61326 P61326:1-146); assay: UV crosslinking; negative control protein; conditions: tags: hexa-histidine, E. coli BL21(DE3)-RP; label: 5'-32P
MAGOH, sequence (P61326 whole entry, one chain of several): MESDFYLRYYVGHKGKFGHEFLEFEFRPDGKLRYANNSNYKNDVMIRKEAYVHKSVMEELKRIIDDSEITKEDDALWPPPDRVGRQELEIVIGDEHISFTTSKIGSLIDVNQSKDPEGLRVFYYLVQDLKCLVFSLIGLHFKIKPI
Source text: (§3) (A,B) Protein:RNA UV crosslinking assays using purified recombinant proteins and 32P-end-radiolabeled G4C2×5 (A) and C4G2×5 (B) repeat RNA probes. Proteins are visualised on SDS-PAGE stained with Coomassie blue (left panels) and covalently linked RNA:protein complexes by autoradiography on Phospholmages (Right panels). UV exposure is indicated by +. […] Nuclei are stained in blue by DAPI. Scale bar: 3 μm;
(§4) We performed in vitro UV-crosslinking assays using purified recombinant proteins and synthetic G4C2×5 and C4G2×5 RNA probes to investigate direct protein:RNA interactions. […] Purified proteins were incubated with 5′-end 32P-radiolabelled G4C2×5 (FIG. 20a) or C4G2×5 (FIG. 20b) RNA probes prior to irradiation with UV where indicated (+) and resolved by SDS-PAGE.

SRSF1 (11-196) = SRSF1 (11-196) (Homo sapiens, UniProt Q07955 SEQ:11-196); assay: UV crosslinking; no signal without UV; conditions: tags: hexa-histidine, E. coli BL21(DE3)-RP; label: 5'-32P
Source text: as §3, §4

ALYREF = ALYREF (Homo sapiens, UniProt Q86V81 Q86V81:1-257); assay: UV crosslinking
[2] = target: T1, SRSF1-m4 (11-196 quadruple Arg to Ala …); assay: UV crosslinking; mutant position printed R93,94,117,118A in text, R90,93,117,118A in FIG. 13; conditions: tags: hexa-histidine, E. coli BL21(DE3)-RP; label: 5'-32P
Source text: as §1, §2

Binder	binding result [1]	binding result (MAGOH)	binding result (SRSF1 (11-196))	binding result (ALYREF)	binding result [2]
CCCCGGCCCCGGCCCCGGCCCCGGCCCCGG (ssRNA) [C4G2x5 RNA]	binds	no binding	binds	binds	–
GGGGCCGGGGCCGGGGCCGGGGCCGGGGCC (ssRNA) [G4C2x5 RNA]	–	no binding	binds	binds	binds
